The series is described as follows: yeast display, Sf9 membrane polyspecificity reagent, FACS + sequencing; frameworks hold sequencing errors. The essentials: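 A synthetic nanobody library was expressed on Saccharomyces cerevisiae BJ5465 by galactose induction for 36–48 hours. The library was stained for 1 hour at 4 °C with 10% biotinylated, detergent-solubilized Sf9 membrane reagent and enriched with streptavidin microbeads before FACS. Low and high (top ~1%) gates were set on anti-HA fluorescence for expression and streptavidin fluorescence for reagent binding, and each polyreactivity label reflects the gate of origin.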
Regarding “QVHLVESGGGLVQAGGSLRLSCAASGSIFTGYAMGWYRQAPGKERELVAGISWGGTSTYYADSVKGRFTISRDNAKNTVYLQMNSLKPEDTAVYYCAAKPYYFYGMDYWGQGTQVTVSS”, the “polyreactivity (PSR sort gate)” value is on record as “high polyreactivity”.

For “QVQLVESGGGLVQAGGSLRLSCAASGIIFVRNVMGWYRQAPGKERELVAAITNGGSTYYADSVKGRFTISRDNAKNTVYLQMNSLQPEDTAVYYCAALTGVRRRYYYWGQGTQVTVSS”, the “polyreactivity (PSR sort gate)” value is “high polyreactivity”.

Take “QVQLVESGGGLVQAGGSLRLSCAASGSIFVYNAMGWYRKATGKERELVAGITFIGGSTYYADSVKGRFTISRDNAKNTVYLQMNSLKPEDTAVYYCNADVAPGIFYGYDSWGQGTQVTVSS”: the “polyreactivity (PSR sort gate)” value is reported as “low polyreactivity”.

Turning to “QVQLVESGGGLVQAGGSLRLSCAASGRIFSSYDMGWYRQAPGKERELVAAISYSGGNTYYADSVKGRFTISRDTAKNTVYLQMNSLKPEDTAVYYCAARLPGYRYYYWGQGTQVTVSS”, the “polyreactivity (PSR sort gate)” value is “high polyreactivity”.

On to “QVQLVETGGGLVHAGGSLRLSCAASGSIFGLYAMGWYRQAPGKERELVAAITVSGGSTYYADSVKGRFTISRDNAKNTVYLQLNSLKPEDTAVYYCAARAGWPLYQYYYWGQGTQVTVSS”, for which the “polyreactivity (PSR sort gate)” value is on record as “high polyreactivity”.

Turning to “QFQLVESGGGLVQAGGSLRLSCAASGRTSLGYDMRWYRQAPGKERELVAAITRSGGYTYYADSVKGRFTISRDNAKNTVYLQMNSLKPEDTAVYYCAAYWRYSGYYYWGQGTQVTVSS”, the “polyreactivity (PSR sort gate)” value is “low polyreactivity”.

For “QVQLVDSGGGLVQAGGSLSLSCAASGRTFARYTMGWSRQAPGKERELLAVISRSGGSTYYADSVKGRFTISRDNAKNSVYLKKNSLKQEDTAVYYCAAGYFVVTTLEYYFWGQGTQVTVSS”, the “polyreactivity (PSR sort gate)” value is “high polyreactivity”.

For “QVQLVESGGGLVQAGGSLRLSCASSGYIFGRYAMGWYRQAPGKERELVAAISSTGDSTYYADSVKGRITISRDNAKNTVYLQMNSLKPEDTAVYYCNAVVPRYSYGRYYYWGQCTQVTVSS”, the “polyreactivity (PSR sort gate)” value was “high polyreactivity”.

In the case of “QVQLVESGGGLVQAGGSLRLSCAASGRTFQVYAMGWYRQAPGKERELVAAISLTGGGTYYADSVKGRFTISRDNAKNTVYLQMNSLKPEDTEVYYCAVRRRTHLGFLYEYWGQGTQVTVSS”, the “polyreactivity (PSR sort gate)” value is “high polyreactivity”.

Turning to “QVQLVESGGGLVQAGGSLRLSCAASGSIFGGYAMGWYRQAPGKERELVAVISSGGSTNYADSVKGRFTISRDNAKNTVYLQMNSLKPEDTAVYYCAATVIYAYRGHFYQYDYWGQGTQVTVSS”, the “polyreactivity (PSR sort gate)” value was “high polyreactivity”.

“QDQLVESGGGLVQAGGSLRLSCAASAIIFYYYAMGSYRQAPGKERELVAAISSSGGRTRYADSVKGRVTISRDNAKNTVYLLMNRLKPEDTAVYYCAAEFIRGYGESYDYWGQGTQVTVSS”: the “polyreactivity (PSR sort gate)” value was “low polyreactivity”.

Regarding “QVQLVESGGGLVQAGGSLRLSCAASGRTFAYYAMGWYRQAPGTERELVATINSAGCTYYADSVKGRFTISRDNAKNTVYLQMNSLKPEDTAVYYCNAAYKSQVRYRRYIYWGQGTQVTVSS”, the “polyreactivity (PSR sort gate)” value is recorded as “high polyreactivity”.

As to “QVQLVESGGGLVQAGGSLRLSCAASGFIFRYYAMGWYRQAPGKERELVAAISRSGGSTYYADSVKGRFTISRDNAKNTVYLQMNSLKPEDTAVYYCNKDPRGRIPVPGTWIMDYWGQGTQVTVSS”, the “polyreactivity (PSR sort gate)” value is “high polyreactivity”.

For the sequence “QVQLVESGGGLVQAGGRLRLSCAASGSTFYQYAMGWYRQAPGKERELVAAISKSGGSTYYADSVKGRFTISRDNAKNTVYLQMNSLKPEDTAVYYCATRWIKGRKMVYWGQGTQVTVSS”, the “polyreactivity (PSR sort gate)” value was “high polyreactivity”.

As to “QVQLVESGGGLVQAGGSLRLSCAASGRTFKYNAMGWYRQAPGKERELVAVISRSTGRTYYADSVKGRFTISRDNAKNTFYLQMNSLKPEDTAVYSCNRVSRQYYYQRGFEYDYWGQGTQVTVSS”, the “polyreactivity (PSR sort gate)” value is on record as “high polyreactivity”.

As for “QVQLVESGGGLVQAGGSLRLSCAASGLIFITYAMGWYRQAPGKERELVATITLRGGSTYYADSVKGRFTISRDNAKNTVYLQMNSLKPEDTAVYYCAARYFSYYILRRIYPVREDYWGQGTQVTVSS”, the “polyreactivity (PSR sort gate)” value was “low polyreactivity”.

For the sequence “QVQLVESGGGLVQAGGSLRLSCAASGSIFGYNAMGWYRQAPGKERELVAAISRSGGRTYYADSVKGRFTISRDNAKNTVYLQMNSLKPEDTAVYDCAAPVWRYYRGKTFDYWGQGTQVTVSS”, the “polyreactivity (PSR sort gate)” value is given as “high polyreactivity”.

On to “QVQLVESGGGLVQAGGSLRLSCAASGSNFLIYAMGSYSQAPGKERELVAAITFSGCSTYADSVKGRFTISRENAKNTVYLQMNSLKPEDTAVYYCAADSTKYAYDYWGQGTQVTVSS”, for which the “polyreactivity (PSR sort gate)” value is reported as “low polyreactivity”.

On to “QVQLVESGGGLVQAGGSLRLSCAASGSIFEWYAMGWYRLAPGKERELVAVFSVRGGSTYYADSVKGRFTMSRENAKNTVYLQMNSLKPEDTAVYYCAADRVAPYYGHKRFYSGGQGTQVTVSS”, for which the “polyreactivity (PSR sort gate)” value is given as “high polyreactivity”.

As to “QVQLVESGGGLVQAGGSLRLSCAASGSTFRYYAMGWYRQAPGKERELVAGITRIGGRTYYADSVKGRFTISRDNAKNTVDLQMNSLKPEDTAVYYCAADYGGFLGYDYWGQGTQVTLSS”, the “polyreactivity (PSR sort gate)” value was “high polyreactivity”.

As for “QVQLVESGGGLVQAGGSLRLSCAASGFIFYDYAMGWYRQATGKERELVAGITDSGGSTSYADSVKGRFTISRDNAKNTDYLQMNSLKPEDTAVYYCAADNYVRAGINYDYWGQGTQVTVSS”, the “polyreactivity (PSR sort gate)” value is on record as “low polyreactivity”.

As to “QVQLVESGGGLVQAGGSLRFSCAASGRIFRYNAMGWYRQAPGKARELVAAISRSGGSTYYADSVKGRFTISRDNAKNTVYLQMISLKPEDTAVYYCAVGSPYGGRAPCVRGGDYWGQGTQVTVSS”, the “polyreactivity (PSR sort gate)” value is listed as “high polyreactivity”.

As for “QVQLVESGGGLVQAGGSLRLSCAASGSIFSAYAMGWYRQAPGKERELVAAISWRTGRTYYADSVKGRFTISRDNAKNTVYLQMNSLKPEDTAVYYCAVVLGVRPYDKHDYWGQGTQVTVSS”, the “polyreactivity (PSR sort gate)” value was “high polyreactivity”.

In the case of “QVQLVESGGGLVQAGGSLRLSCAASGRTIGLYGMGWYRQAPGKEREFDAAITRRGGSTYYADSVKGRFTISRDHAKNTVYLQMNSLKPEDTADYYCAAGYSSRYRGGLDYWGQGTQVTVSS”, the “polyreactivity (PSR sort gate)” value is listed as “high polyreactivity”.

On to “QVQLVESGGRLVQAGGSLRLSCAASGTFAVYTMGWYRQAPGKERELVAAISSGGSTYYADSVKGRFTISRDNAKNTVYLQMNSLKPEDTAVYYCNKPLSYGYDYWGQGTQVTVSS”, for which the “polyreactivity (PSR sort gate)” value is “high polyreactivity”.

Consider “QVQLVESGKGLVQAGGSLRLSCAASGITITIYAMGWYRNAPGKERELVAAITWRGGRTYYADSVKGRFTISRDNAKNTVYLQMNSLKPEDTAVYYCNALFGSYPYYWFEYWGHGTQVTVSS”, for which the “polyreactivity (PSR sort gate)” value was “high polyreactivity”.

Consider “QVQLVESGGGLVQAGGSLRLSCAASGRTFRYYSMGWYRQAPGKERELVAAISSRGNTYYADSVKGRFTISRDNAKNTVYLQMNSLKPEDTAVYYCAARNVVTGYRYDYWGHGTQVTVSS”, for which the “polyreactivity (PSR sort gate)” value is reported as “high polyreactivity”.

“QVQLVESGGGLVQAGGSLRLSCAASGIIFYSYAMGWYRQAPGKERELVAAISNNGGSTYADSVKGRFTISRDNAKNTVYLQMNSLKPEDTAVYYCAADPTGGVGFDGYYWGQGTQVTVSS”: the “polyreactivity (PSR sort gate)” value was “low polyreactivity”.

For the sequence “QVQLVESGGGLVQAGGSLRLSCAASGFTFVQYAMGWYRQAPGKERELVATISKSGGITYYADSVKGRFTISRDNAKNTVYLQMNSLKPEDTAVYYCAAAWYYSSRGFHATWGHDYWGQGTQVTVSS”, the “polyreactivity (PSR sort gate)” value is reported as “low polyreactivity”.

For the sequence “QVQLVESGGGLVQSGGSLRLSCAASGFIFLNYAMGWYRQAPGKERQLVAAITSGGNTTYADSVKGRFTISRDNAKNTVYLQMNSLKPEDTAVYYCAAEWASRYAVFWAYPKYDYWGQGTQVTVAS”, the “polyreactivity (PSR sort gate)” value was “low polyreactivity”.
